target: T1, HLA-A*02:01 (human); assay: UV peptide-exchange ELISA
T1 construct: MHC class I monomer of the UV-ligand exchange assay; also called peptide-receptive MHC molecules; MHC class I
In short: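 Peptide-MHC complexes formed by UV-mediated exchange of a UV-cleavable peptide for the test peptide; exchange yield quantified by β2m ELISA. Diluted 100-fold, captured on streptavidin-coated plates 1 h at 37 °C, detected with HRP anti-β2m and TMB at 450 nm against refolded HLA-A*02:01 monomer standards (15-500 ng/ml).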

Binder | peptide exchange yield [%]
FLHDHQAEL | 20 to 50
FVYFIVREV | 50 to 75
FMEPTLLML | 50 to 75
FILTHVDQL | ≥ 75
FIMEGGAMV | 50 to 75
FLVEAPHDWDL | ≥ 75
FLDALLTDV | 50 to 75
FLSPQQPPLL | 50 to 75
FLTDLFAQL | ≥ 75
FLSDQPEPYL | 20 to 50
FLTDYLNDL | 50 to 75
FLLGPEALSFA | ≥ 75
FVFGDENGTVSL | 50 to 75
ALIFKIASA | 50 to 75
FLIQEIKTL | 50 to 75
FVLDHEDGLNL | 50 to 75
FLPELPADLEA | 50 to 75

Binder | peptide exchange yield [%]
FLLSINDFL | 50 to 75
ALLERTGYTL | 50 to 75
FMQDPMEVFV | 50 to 75
FLYPFPLALF | 50 to 75
FVPDTPVGV | 50 to 75
FLFEPVVKAFL | 50 to 75
FIWPMLIHI | 50 to 75
ALDTLEDDMTI | 50 to 75
GIIDGSPRL | 50 to 75
FVFEAPYTL | 50 to 75
FIMEGGAMVL | ≥ 75
FLEEGGVVTV | 50 to 75
FLDPSLDPLL | 50 to 75
FLWQHVELVL | 50 to 75
FLDEDDMSL | 20 to 50
GLDDMKANL | 20 to 50
FLVETGFLHV | ≥ 75

Further lines, results first:

peptide exchange yield [%] | Binder
50 to 75 | YLAELVTPIL
50 to 75 | VLYNQRVEEI
50 to 75 | YLLEENKIKL
50 to 75 | YTIPLAIKL
20 to 50 | GLSIFAQDLRL
50 to 75 | VIAELPPKVSV
50 to 75 | SLAHVAGCEL
50 to 75 | GLLEVISALQL
50 to 75 | ILTELGGFEV
50 to 75 | SLAGGLDDMKA
50 to 75 | GLKHDIARV
50 to 75 | KLLESVASA
50 to 75 | GLLDAGKMYV
≥ 75 | YLLREWVNL
20 to 50 | GLLRASFLL
20 to 50 | GLDDVTVEV
50 to 75 | SLADDSVLERL
10 to 20 | GLDQQFAGLDL
50 to 75 | KMDWIFHTI
50 to 75 | YIIDSAQAV

peptide exchange yield [%] | Binder
50 to 75 | HLIDTNKIQL
20 to 50 | TLLADQGEIRV
50 to 75 | GLHQREIFL
50 to 75 | SLFGPLPGPGPALV
≥ 75 | YMIGSEVGNYL
50 to 75 | NLWSLVAKV
50 to 75 | YLDRKLLTL
≥ 75 | GLSEISLRL
50 to 75 | YIQQGIFSV
50 to 75 | RLLDLENSLLGL
50 to 75 | VVDGTCVAV
50 to 75 | ILQEFESKL
50 to 75 | VLSVITEEL
≥ 75 | YLLPLLQRL
50 to 75 | ITTEVVNELYV
50 to 75 | LISPLLLPV
50 to 75 | YILGKFFAL
50 to 75 | SIFASPESV
50 to 75 | VLWFKPVEL
